Tests used:
Assay in all cases: SPR
[1] = target: His-FGF2, LMW FGF2 (residues 135-288, C211S/C229S), P09038; settings: chain shown with the change; concentration series 0.031, 0.063, 0.13, 0.25, 0.50, 1.0, 2.0, 4.0, 8.0, 16 µM
[2] = target: T1, His-FGF2 Mut (C211S/C229S/R262A/T263A/K271A), P09038; settings: chain shown with the change; concentration series 0.25, 0.50, 1.0, 2.0, 4.0, 8.0, 16, 32, 64 µM
T1 chain: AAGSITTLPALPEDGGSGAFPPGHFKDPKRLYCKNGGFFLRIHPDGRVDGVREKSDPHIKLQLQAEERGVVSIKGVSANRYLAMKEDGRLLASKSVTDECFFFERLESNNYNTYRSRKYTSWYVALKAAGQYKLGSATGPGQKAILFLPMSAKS

[3] = target: T2, His-API5 (apoptosis inhibitor 5, residues 1-504, isoform 2), wild type; settings: chain shown with the change; concentration series 0.13, 0.25, 0.50, 1.0, 2.0, 4.0, 8.0, 16 µM
T2 chain: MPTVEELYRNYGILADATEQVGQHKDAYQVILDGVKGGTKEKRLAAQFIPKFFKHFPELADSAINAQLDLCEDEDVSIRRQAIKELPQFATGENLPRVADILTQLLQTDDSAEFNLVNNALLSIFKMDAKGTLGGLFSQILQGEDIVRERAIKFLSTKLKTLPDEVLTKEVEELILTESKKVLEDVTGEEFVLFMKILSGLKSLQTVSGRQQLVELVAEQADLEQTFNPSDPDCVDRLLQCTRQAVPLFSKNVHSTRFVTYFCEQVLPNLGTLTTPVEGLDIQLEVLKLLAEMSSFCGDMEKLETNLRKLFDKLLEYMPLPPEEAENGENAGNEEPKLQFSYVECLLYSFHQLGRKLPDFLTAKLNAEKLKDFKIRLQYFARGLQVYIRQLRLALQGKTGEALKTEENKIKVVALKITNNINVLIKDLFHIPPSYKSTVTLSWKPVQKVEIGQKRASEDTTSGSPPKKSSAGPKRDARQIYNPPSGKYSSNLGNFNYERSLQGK

B1: His-API5 (apoptosis inhibitor 5, residues 1-504, isoform 2), wild type E184A; D185A; E190A (protein)
chain: MPTVEELYRNYGILADATEQVGQHKDAYQVILDGVKGGTKEKRLAAQFIPKFFKHFPELADSAINAQLDLCEDEDVSIRRQAIKELPQFATGENLPRVADILTQLLQTDDSAEFNLVNNALLSIFKMDAKGTLGGLFSQILQGEDIVRERAIKFLSTKLKTLPDEVLTKEVEELILTESKKVLAAVTGEAFVLFMKILSGLKSLQTVSGRQQLVELVAEQADLEQTFNPSDPDCVDRLLQCTRQAVPLFSKNVHSTRFVTYFCEQVLPNLGTLTTPVEGLDIQLEVLKLLAEMSSFCGDMEKLETNLRKLFDKLLEYMPLPPEEAENGENAGNEEPKLQFSYVECLLYSFHQLGRKLPDFLTAKLNAEKLKDFKIRLQYFARGLQVYIRQLRLALQGKTGEALKTEENKIKVVALKITNNINVLIKDLFHIPPSYKSTVTLSWKPVQKVEIGQKRASEDTTSGSPPKKSSAGPKRDARQIYNPPSGKYSSNLGNFNYERSLQGK
Question: With B1 as the binder, how does the koff [1] read?
Answer: 0.0094 s⁻¹

B2: m1; m2 API5: E184A; D185A; E190A; FGF2: R262A; T263A; K271A (protein)
chain: MPTVEELYRNYGILADATEQVGQHKDAYQVILDGVKGGTKEKRLAAQFIPKFFKHFPELADSAINAQLDLCEDEDVSIRRQAIKELPQFATGENLPRVADILTQLLQTDDSAEFNLVNNALLSIFKMDAKGTLGGLFSQILQGEDIVRERAIKFLSTKLKTLPDEVLTKEVEELILTESKKVLAAVTGEAFVLFMKILSGLKSLQTVSGRQQLVELVAEQADLEQTFNPSDPDCVDRLLQCTRQAVPLFSKNVHSTRFVTYFCEQVLPNLGTLTTPVEGLDIQLEVLKLLAEMSSFCGDMEKLETNLRKLFDKLLEYMPLPPEEAENGENAGNEEPKLQFSYVECLLYSFHQLGRKLPDFLTAKLNAEKLKDFKIRLQYFARGLQVYIRQLRLALQGKTGEALKTEENKIKVVALKITNNINVLIKDLFHIPPSYKSTVTLSWKPVQKVEIGQKRASEDTTSGSPPKKSSAGPKRDARQIYNPPSGKYSSNLGNFNYERSLQGK
Question: For B2, which koff [2] is on record?
Answer: 0.00328 s⁻¹

Question: What about the other: t1/2 (half-life of complex) [2] of the same binder?
Answer: 211 s

B3: His-FGF2, LMW FGF2 (residues 135-288, C211S/C229S), P09038 R262A; T263A; K271A (protein)
chain: AAGSITTLPALPEDGGSGAFPPGHFKDPKRLYCKNGGFFLRIHPDGRVDGVREKSDPHIKLQLQAEERGVVSIKGVSANRYLAMKEDGRLLASKSVTDECFFFERLESNNYNTYRSRKYTSWYVALKAAGQYKLGSATGPGQKAILFLPMSAKS
Question: B3 was tested. Which koff [3] did it give?
Answer: 0.00251 s⁻¹
